From US20250059285A1 (ARGENX, published 2025)

T1: human Gal10-His (human, UniProt Q05315 2-142, limits assumed)
T1 construct: also called hGal10-His; human Gal10-His tagged; not shown: His tag
T1 sequence: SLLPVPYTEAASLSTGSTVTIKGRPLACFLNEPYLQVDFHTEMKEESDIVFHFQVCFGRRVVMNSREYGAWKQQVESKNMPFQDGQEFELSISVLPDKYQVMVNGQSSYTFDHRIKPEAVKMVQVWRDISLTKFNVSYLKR

T2: recombinant human Charcot-Leyden crystals (crystalline galectin-10) (human, UniProt Q05315 2-142, limits assumed)
T2 sequence: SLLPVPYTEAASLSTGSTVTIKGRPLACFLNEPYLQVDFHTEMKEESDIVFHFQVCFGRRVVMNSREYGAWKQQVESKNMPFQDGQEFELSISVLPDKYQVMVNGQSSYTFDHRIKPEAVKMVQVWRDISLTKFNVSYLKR


What was measured:
[1] = biological target: T1, human Gal10-His; assay: SPR Biacore 3000, hFab on captured human Gal10-His; column head prints (M), the text gives nM
Experimental: (§1) The binding properties of the selected clones to human and cynomolgus Gal10 was analyzed via a capture method established on a Biacore 3000 instrument.
(§2) For this purpose, two approaches were used. In the first, two concentrations of the selected clones were applied on cynomolgus (WGS isoform) Gal10-His capture on a CM5 chip coated with a monoclonal anti-His antibody. The second approach involved a serial dilution that was applied on human or cynomolgus (WGS isoform) Gal10-His in the same set-up.

[2] = biological target: T1, human Gal10-His; assay: SPR against T0 reference; sample 4 weeks at 5 C, then nebulized
Experimental: (§3) The functional active concentration of the candidates was then assessed by SPR on a Biacore 3000 instrument (FIG. 4). All samples were evaluated with methods meeting the standard qualification criteria. Aliquots were tested at predefined test concentrations against titration curves from reference samples (T0, −80° C. storage) and in the presence of quality control (QC) samples covering a range of 70-130% relative activity (% RA) towards the reference material.
(§4) comparison/reference ⁽¹⁾ samples correspond to aliquots kept at +37° C. for 4 weeks ⁽²⁾ samples correspond to aliquots kept at +5° C. for 4 weeks prior to nebulization. In brief, samples were nebulized with an Aerogen Solo active vibrating mesh nebulizer that converted a drug solution into an inhalable aerosol. Three different devices for each time-point were used per clone and results are reported by the device (nebulizer) serial number. In case of device fouling, indicated by longer nebulization times […]

[3] = biological target: T1, human Gal10-His; assay: SPR Biacore 3000, hFab on human Gal10-His captured by anti-His CM5
Experimental: as §1, §2

[4] = biological target: T1, human Gal10-His; assay: SPR, overview table of lead Fab candidates
[5] = biological target: T1, human Gal10-His; assay: SPR Biacore 3000, purified hFab (2 conc.) on Gal10-His captured by anti-His CM5
Experimental: (§5) The binding properties of the selected Fab clones to human Gal10 were analyzed via a capture method established on a Biacore 3000 instrument. Two concentrations of the selected Fab clones were tested on human Gal10-His immobilized on a CM5 chip coated with a monoclonal anti-His. As controls, the clone g7B07 and g7B07_N53A were injected at the beginning and the end of the run. Briefly, a CM5 chip was coated with a monoclonal anti-His antibody (4000 RU), then a fixed concentration of the human Gal10-His (25 μg/mL) was captured on the anti-His chip before receiving two concentrations of the clones in the human Fab backbone.

[6] = biological target: T2, recombinant human Charcot-Leyden …; assay: cell-based or functional assay
[7] = biological target: T3, cynomolgus Gal10-His (WGS isoform) (cynomolgus); assay: SPR Biacore 3000, hFab on cynomolgus Gal10-His (WGS) captured by anti-His CM5
T3 construct: also called cynomolgus antigen
Experimental: as §1, §2

[8] = biological target: T3, cynomolgus Gal10-His (WGS isoform); assay: SPR Biacore 3000, hFab on captured cynomolgus Gal10-His (WGS); column head prints (M), the text gives nM
Experimental: as §1, §2

[9] = biological target: T1, human Gal10-His; assay: SPR against T0 reference; sample 4 weeks at 37 C
Experimental: as §3, §4

[10] = biological target: T1, human Gal10-His; assay: SPR Biacore 3000, purified hFab on captured Gal10-His
Experimental: as §5

[11] = biological target: T1, human Gal10-His; assay: SPR, summary table, human Gal10
[12] = biological target: T1, human Gal10-His; assay: SPR Biacore 3000, hFab on captured human Gal10-His
Description: as §2
Further characterization of the cynomolgus cross-reactivity of these clones highlighted g24F02_N53A and g23H09.

[13] = biological target: T1, human Gal10-His; assay: SPR slope against calibrators on captured Gal10-His; sample 2 weeks at 37 C
Experimental: (§6) The binding properties of the seven selected clones following two weeks of temperature stress was analysed using an optimized capture method on a Biacore 3000 instrument. The binding properties of the stressed samples were determined, compared to the calibration point, and expressed as a percentage of Relative Activity (% RA).
(§7) Briefly, a capture method was set-up on a Biacore 3000 instrument. For this purpose, a CM5 chip was coated with a monoclonal anti-His antibody (4000 RU), then a fixed concentration of the human Gal10-His (25 μg/mL) was captured on the anti-His chip before receiving duplicate injections of the calibrators, QC samples and temperature stressed samples of each clone. The slope of each injected sample was then calculated using the BIA evaluation software. Concentrations of the QC samples and temperature stressed samples were back-calculated by interpolating the obtained slopes of these samples to the calibrator curve. Obtained values were within +/−20% of the nominal concentration of the tested samples and are expressed as average relative accuracy (avg % RA) (Table 13).

[14] = biological target: T1, human Gal10-His; assay: competition ELISA on coated Gal10-His; hFab 20 ug/mL, competitor g7B07-hFab-Biot, streptavidin-HRP
Experimental: An epitope binning analysis of the humanized Fab clones was carried out in comparison with the humanized Fab of g7B07.
For this experiment, a sub-optimal concentration of the biotinylated clone g7B07-humanized Fab was added to the Gal10 coated plate and pre-incubated with the selected clones. The percentage competition with g7B07 was then determined (Table 17). Motavizumab (Mota) in a human Fab backbone was used as a negative control (0% competition). Clone g7B07 was used as the positive control for competition and was therefore set as the 100% competition value. The anti-human specific clone 1D11 (binding to Tyrosine 69 residue) was included in the tested panel as a negative control for competition with 7B07 for Gal10 binding because it was known that clone 1D11 binds to the opposite side of Gal10 (including Tyrosine 69).

[15] = biological target: T3, cynomolgus Gal10-His (WGS isoform); assay: SPR, summary table, cynomolgus_WGS Gal10
[16] = biological target: T1, human Gal10-His; assay: SPR slope against calibrators on captured Gal10-His; T0 sample
Experimental: as §6, §7

Binder	Kd [1] [nM]	% relative activity by SPR [2] [%]	Amplitude R0 [3] [RU]	koff [3] [s⁻¹]	kon [3] [M⁻¹ s⁻¹]	Kd [4] [nM]	koff [4] [s⁻¹]	Kd [5] [nM]	kd-fold drop vs g7B07 [5] [fold]	koff [5] [s⁻¹]	kon [5] [M⁻¹ s⁻¹]	crystal dissolution % Relative Activity towards the reference T0 after 2 h, nebulized [6] [%]	crystal dissolution % Relative Activity towards the reference T0 after 2 h, stressed [6] [%]	Amplitude R0 [7] [RU]	koff [7] [s⁻¹]	kon [7] [M⁻¹ s⁻¹]	Kd [8] [nM]	% relative activity by SPR [9] [%]	further results
g7B07_N53A (human Fab) (Fab, V domains shown, VH assembled by inference as for g7B07; Human Fab backbone; also called g7B07_N53A (mean)) VH: EVQLLESGGGLVQPGGSLRLSCAASGFTFRSYDMSWVRQAPGKGLEWVSAIKAGGGITYYADSVKGRFTISRDNSKNTLYLQMNSLRAEDTAVYYCATTHGIGTLGFGSWGQGTLVTVSS VL: SYELTQPLSVSVALGQTARITCDGNNIGSKSAQWYQQKPGQAPVLVIYADEYRPEGIPERFSGSNSGNTATLTISRAQAGDEADYYCQVWDGSAAVFGGGTQLTVL	145	94	119	0.079	540000	145	0.079	144	0.06	0.078	640000	53	82	30	0.21	510000	417	95	recGal10 crystal dissolution EC50 (T2 h), Assay 1, nebulized [6]: 584 µg/mL; recGal10 crystal dissolution EC50 (T2 h), Assay 1, stressed (4 W at 37 C) [6]: 379 µg/mL; recGal10 crystal dissolution EC50 (T2 h), Assay 1, unstressed (T0) [6]: 309 µg/mL
g24F02_N53A (human Fab) (Fab, V domains shown, Human Fab backbone: human CH1 and human lambda constant domain (pUPEX vectors); also called g24F02_N53A_2W) VH: EVQLLESGGGLVQPGGSLRLSCAASGFTFSSYAMSWVRQAPGKGLEWVSAINAGGGSTSYADSVKGRFTISRDNSKNTLYLQMNSLRAEDTAVYYCAKGLRVGVLGFDYWGQGTLVTVSS VL: SYELTQPLSVSVALGQTARITCDGNNIGSKSAQWYQQKPGQAPVLVIYADEYRPEGIPERFSGSNSGNTATLTISRAQAGDEADYYCQVWDGSAAVFGGGTQLTVL	1.43	111	647	0.0018	1.3e+06	1.4	0.0018	2.3	2.8	0.0016	710000	120	117	544	0.0088	1.1e+06	8	103	fold better affinity than g7B07 [10]: 4.7 fold; Kd [11]: 1.4 nM; koff [11]: 0.0018 s⁻¹; fold better affinity than g7B07 [12]: 6.3 fold; fold better off-rate than g7B07 [12]: 3.5 fold; % Relative Activity (RA) on Biacore [13]: 99%; recGal10 crystal dissolution EC50 (T2 h), Assay 2, nebulized [6]: 159 µg/mL; recGal10 crystal dissolution EC50 (T2 h), Assay 2, stressed (4 W at 37 C) [6]: 164 µg/mL; recGal10 crystal dissolution EC50 (T2 h), Assay 2, unstressed (T0) [6]: 191 µg/mL; % Competition against g7B07-Biot [14]: 99%; Mean OD value [14]: 0.2 OD; Kd [15]: 8 nM; koff [15]: 0.0088 s⁻¹; % Relative Activity (RA) on Biacore [16]: 98%
